Series [1] addresses FITC-labeled PIASγ peptide derived from the essential PIASγ LXXLL motif. Nature of the series: fluorescence polarisation.
The series “SEC” concerns the molecule itself. Nature of the series: SEC. On the technique in general: SEC sorts molecules by how far they enter the pores of the column.

Results on two molecules are retold here after PMC4946999 (ACS chemical biology, 2016).

For the molecule “Nurr1 ligand-binding domain (LBD) (from UniProt P43354 328-598) (domain or fragment)”, in series [1], the Kd came to 3.5 µM.

B1: Nurr1 ligand-binding domain (LBD) (domain or fragment)
chain: MVKEVVRTDSLKGRRGRLPSKPKSPQEPSPPSPPVSLISALVRAHVDSNPAMTSLDYSRFQANPDYQMSGDDTQHIQQFYDLLTGSMEIIRGWAEKIPGFADLPKADQDLLFESAFLELFVLRLAYRSNPVEGKLIFCNGVVLHRLQCVRGFGEWIDSIVEFSSNLQNMNIDISAFSCIAALAMVTERHGLKEPKRVEELQNKIVNCLKDHVTFNNGGLNRPNYLSKLLGKLPELRTLCTQGLQRIFYLKLEDLVPPPAIIDKLFLDTLPF
Consider B1, for which the “stoichiometry N” value in the series “SEC” was found to be 2.

The term Kd denotes the free concentration of one partner at which half of the binding sites on the other are occupied at equilibrium, for simple one-to-one binding. High values mean lower affinity, low ones higher affinity. For orientation: stoichiometry N means the number of molecules, sites or subunits per partner or assembly.
